Data set [1] can be described thus: Aggregation / fibril formation in free solution (TEM, solubility). Format: physicochemical. Conditions: 10 mM peptide, Bis-Tris buffer pH 6.5, after six days of incubation at 4° C, 24° C or 37° C. The procedure:
Aggregated MBPA-C-FG30 for transmission electron microscopy (TEM) was prepared by dissolving 2.0 mg of purified and lyophilized MBPA-C-FG30-LSAFTG in 60 μl of 0.2 M Bis-Tris buffer (pH 6.5) to produce a 10 mM peptide solution. The solution was evenly divided into three 20 μl aliquots, each transferred into a 0.2 ml tube. The three tubes were incubated quiescently for 6 days at temperatures of 4° C, 24° C, and 37° C. After incubation, each sample was briefly vortexed, and 3 μl was withdrawn for subsequent TEM imaging, as described below.
Transmission electron microscope (TEM) images were acquired with an FEI Morgagni microscope, operating at 80 kV, and a side-mounted Advantage HR camera (Advanced Microscopy Techniques). TEM grids were lacey carbon on 300 mesh copper (Electron Microscopy Sciences), upon which carbon films were deposited by flotation. Solutions containing aggregated MBPA-C-FG30 were diluted 100-fold in H2O, then adsorbed in 10 μl aliquots to glow-discharged grids for 90 s. Grids were blotted, rinsed with H2O, blotted, rinsed again, blotted, and stained with 2% w/v uranyl acetate for 15 s before final blotting and drying in air.
Figure 5: TEM images of aggregated MBPA-C-FG30, negatively stained with uranyl acetate. […]

For data set [2] the following is noted: 4° C; thermodynamic, from 7.1 mM (23 mg/ml) solutions in Bis-Tris buffer pH 6.5 (printed 0.2 mM), incubated four days with brief bath sonication once per day; centrifuged 16,000 x g 15 min, 0.1 μm filter; absorbance at 260 nm, triplicate.
Experimental: After incubation, solutions were centrifuged at 16,000 × g for 15 min, yielding visible pellets at each temperature. Supernatants were then passed through 0.1 μm centrifugal filters (Millipore Ultrafree, 0.5 ml volume) and diluted with H2O by factors of four. Peptide concentrations were determined from absorbance measurements at 260 nm, performed in triplicate, using an extinction coefficient of 1070 M^−1 cm^−1 that was determined from the absorbance of the initial solutions.
The nature of data set [3]: equilibrium solubility (centrifugation, filtration, absorbance of the supernatant at 260 nm); 7.1 mM solution in Bis-Tris buffer pH 6.5, 4 days at 24 °C with brief daily bath sonication; 16,000 x g 15 min, 0.1 um filter; monomer left over aggregates. The conditions noted are these: other: equilibrium solubility (centrifugation, filtration, absorbance of the supernatant at 260 nm).

A short description of data set [4]: equilibrium solubility (centrifugation, filtration, absorbance of the supernatant at 260 nm); 7.1 mM solution in Bis-Tris buffer pH 6.5, 4 days at 40 °C with brief daily bath sonication; 16,000 x g 15 min, 0.1 um filter; monomer left over aggregates. The conditions noted are these: other: equilibrium solubility (centrifugation, filtration, absorbance of the supernatant at 260 nm).

Data set [5] in a line: equilibrium solubility (centrifugation, filtration, absorbance of the supernatant at 260 nm); 7.1 mM solution in Bis-Tris buffer pH 6.5, 4 days at 4 °C with brief daily bath sonication; 16,000 x g 15 min, 0.1 um filter; monomer left over aggregates. Conditions: other: equilibrium solubility (centrifugation, filtration, absorbance of the supernatant at 260 nm).

Where two headings read alike, the source gives them in different places. Primed or numbered codes have the meaning given here. No end group written: not given here. *: point of attachment. MBPA″ = 4-maleimidobutylphosphonic acid, conjugated to the N-terminal cysteine, O=C1CC(*)C(=O)N1CCCCP(=O)(O)O; MBPA = 4-maleimidobutylphosphonic acid, O=C1CC(*)C(=O)N1CCCCP(=O)(O)O

Two molecules from doi:10.1101/2025.09.11.675621, “Effects of Nanopore Confinement on the Conformational, Dynamical, and Self-Assembly Properties of an FG-Repeat Peptide” (bioRxiv, 2025) can be followed below.

Consider “MBPA-C-FG30: C-FG30 with 4-maleimidobutylphosphonic acid conjugated to the N-terminal cysteine (C(MBPA″)FGNNKLTTFGSSTTSAPSFGTTSGGLFGNK-NH2; also: uniform 15N,13C labels at L6, S11, A16, F19, T22, G28 or at G2, G10, G20, G29 (FG30 numbering))”, for which the “morphology of aggregated material (negative-stain TEM)” value in data set [1] is given as “straight, unbranched assemblies”. The molecule further gave an equilibrium solubility in data set [2] of 4.5 ± 0.2 mM.

B1: MBPA-C-FG30 (peptide)
chain: C(MBPA)FGNNKLTTFGSSTTSAPSFGTTSGGLFGNK-NH2
modifications: also: uniform 15N,13C labels at L6, S11, A16, F19, T22, G28 (LSAFTG) or G2, G10, G20, G29 (4G)
Regarding B1, the equilibrium solubility in data set [3] worked out at 1.60 ± 0.04 mM; in data set [4] it was 1.92 ± 0.08 mM; in data set [5] it was 4.5 ± 0.2 mM.
